Reference: publication PMC11423973 (2024)

Target: SFTSV Gn head domain (Severe fever with thrombocytopenia …)
Test: BLI

B1: c40C10 (human IgG1 antibody with the heavy and light chain variable regions of mAb 40C10) (antibody, V domains shown)
VH: EVQLQQSGAELVKPGASVKLSCKASGYTFTSHYMYWVKQRPGQGPEWIGEINPTNGGTKFNEKFKSKATLTVDKSSSTAYIQLSSLTSEDSAVYYCSSSGYDYDGRAYFDYWGQGTTLTVSS
VL: DVVMTQTPKFLLVSAGDRVTITCKASQSVSNDVAWYQQKPGQSPKLLIYYASYRYTGVPDRFTGSGYGTDFTFTISAVQAEDLAVYFCQQNYNSPYTFGGGTKLEIK
**Q.** For B1, which Kd is on record?
**A.** 0.582 nM
